Experimental findings from IntAct's records for PubMed 25535969 are described below.

B1: Lysine-specific demethylase 3A (Homo sapiens), Q9Y4C1 (parent)
chain: MVLTLGESWPVLVGRRFLSLSAADGSDGSHDSWDVERVAEWPWLSGTIRAVSHTDVTKKDLKVCVEFDGESWRKRRWIEVYSLLRRAFLVEHNLVLAERKSPEISERIVQWPAITYKPLLDKAGLGSITSVRFLGDQQRVFLSKDLLKPIQDVNSLRLSLTDNQIVSKEFQALIVKHLDESHLLKGDKNLVGSEVKIYSLDPSTQWFSATVINGNPASKTLQVNCEEIPALKIVDPSLIHVEVVHDNLVTCGNSARIGAVKRKSSENNGTLVSKQAKSCSEASPSMCPVQSVPTTVFKEILLGCTAATPPSKDPRQQSTPQAANSPPNLGAKIPQGCHKQSLPEEISSCLNTKSEALRTKPDVCKAGLLSKSSQIGTGDLKILTEPKGSCTQPKTNTDQENRLESVPQALTGLPKECLPTKASSKAELEIANPPELQKHLEHAPSPSDVSNAPEVKAGVNSDSPNNCSGKKVEPSALACRSQNLKESSVKVDNESCCSRSNNKIQNAPSRKSVLTDPAKLKKLQQSGEAFVQDDSCVNIVAQLPKCRECRLDSLRKDKEQQKDSPVFCRFFHFRRLQFNKHGVLRVEGFLTPNKYDNEAIGLWLPLTKNVVGIDLDTAKYILANIGDHFCQMVISEKEAMSTIEPHRQVAWKRAVKGVREMCDVCDTTIFNLHWVCPRCGFGVCVDCYRMKRKNCQQGAAYKTFSWLKCVKSQIHEPENLMPTQIIPGKALYDVGDIVHSVRAKWGIKANCPCSNRQFKLFSKPASKEDLKQTSLAGEKPTLGAVLQQNPSVLEPAAVGGEAASKPAGSMKPACPASTSPLNWLADLTSGNVNKENKEKQPTMPILKNEIKCLPPLPPLSKSSTVLHTFNSTILTPVSNNNSGFLRNLLNSSTGKTENGLKNTPKILDDIFASLVQNKTTSDLSKRPQGLTIKPSILGFDTPHYWLCDNRLLCLQDPNNKSNWNVFRECWKQGQPVMVSGVHHKLNSELWKPESFRKEFGEQEVDLVNCRTNEIITGATVGDFWDGFEDVPNRLKNEKEPMVLKLKDWPPGEDFRDMMPSRFDDLMANIPLPEYTRRDGKLNLASRLPNYFVRPDLGPKMYNAYGLITPEDRKYGTTNLHLDVSDAANVMVYVGIPKGQCEQEEEVLKTIQDGDSDELTIKRFIEGKEKPGALWHIYAAKDTEKIREFLKKVSEEQGQENPADHDPIHDQSWYLDRSLRKRLHQEYGVQGWAIVQFLGDVVFIPAGAPHQVHNLYSCIKVAEDFVSPEHVKHCFWLTQEFRYLSQTHTNHEDKLQVKNVIYHAVKDAVAMLKASESSFGKP

Variants of B1 are the subject of this assay. The conditions noted are these: with STAT1, P42224-1.
Chain of STAT1, P42224-1 (P42224 whole entry): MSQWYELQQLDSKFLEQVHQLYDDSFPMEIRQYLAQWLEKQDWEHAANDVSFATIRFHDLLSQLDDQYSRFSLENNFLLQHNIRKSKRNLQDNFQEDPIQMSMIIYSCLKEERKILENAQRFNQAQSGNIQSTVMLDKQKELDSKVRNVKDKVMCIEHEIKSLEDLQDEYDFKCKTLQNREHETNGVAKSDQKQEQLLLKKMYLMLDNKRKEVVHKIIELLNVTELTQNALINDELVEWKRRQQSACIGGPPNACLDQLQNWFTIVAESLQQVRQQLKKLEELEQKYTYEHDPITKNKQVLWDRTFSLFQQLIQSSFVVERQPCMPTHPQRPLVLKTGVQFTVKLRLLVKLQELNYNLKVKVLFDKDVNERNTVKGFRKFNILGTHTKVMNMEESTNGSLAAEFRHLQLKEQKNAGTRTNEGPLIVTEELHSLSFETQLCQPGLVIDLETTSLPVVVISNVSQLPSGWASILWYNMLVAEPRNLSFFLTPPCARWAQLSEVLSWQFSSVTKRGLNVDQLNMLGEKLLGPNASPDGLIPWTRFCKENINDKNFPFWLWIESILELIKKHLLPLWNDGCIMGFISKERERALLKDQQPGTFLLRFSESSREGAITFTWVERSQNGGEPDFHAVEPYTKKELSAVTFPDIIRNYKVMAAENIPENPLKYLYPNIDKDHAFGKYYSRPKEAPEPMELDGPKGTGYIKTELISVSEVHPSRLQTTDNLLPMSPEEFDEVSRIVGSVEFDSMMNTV
As to S264A, the “effect of a mutation on the interaction” value is recorded as “disrupting interaction strength”.
